In US20160193316A1 (priority 1994, published 2016):

Columns and labels:
[1] = biological target: HLA-A*1101 (Homo sapiens, UniProt P04439, A114D/D185E/E176A/F33Y/L180Q/S129P/T187R); experiment: HLA class I peptide binding assay; conditions: Table XVII
[2] = biological target: T1, DRB1*0701 (DR7) (Homo sapiens, UniProt P01903+P01911, A100R/A102G/A103Q/D57E/D86V/E43K/F76Y/K127E/L162R/M171V/P40G/Q125H/Q99D/R33Q/R42Y/R54Q/S133A/S66F/T210M/V115G/Y107V/Y59L/Y89S); experiment: biochemical; format: binding
T1 construct: endogenous in cells; host or cells: Pitout

[3] = biological target: T2, DRB1*1201 (DR5w12) (Homo sapiens, UniProt P01903+P01911, A100R/A169T/D57E/D86V/F55L/H45Y/K41T/L162R/M171V/P40S/Q125H/Q178H/Q39Y/Q99D/R42G/S66L/T262R/V114A/V67L/W38E/Y59H/Y61H/Y89S); experiment: HLA class II peptide binding assay; conditions: for DR5w12 binding information: unit not given; for DR5w12 binding data: Table XIXb
T2 construct: endogenous in cells; host or cells: Herluf

[4] = biological target: T3, DRB1*1101 (DR5w11) (Homo sapiens, UniProt P01903+P01911, A100R/A169T/A87E/I96F/K41T/L162R/M171V/P40S/Q125H/Q178H/Q39Y/Q99D/R42S/S66Y/T262R/V115G/W38E); experiment: biochemical; format: binding
T3 construct: endogenous in cells; host or cells: Sweig

[5] = biological target: T4, DRB4*0101 (DRw53) (Homo sapiens, UniProt P01903+P13762, G164S); experiment: HLA class II peptide binding assay (pH 5.0)
T4 construct: expressed in transfected cells; host or cells: L257.6 (fibroblasts)

[6] = biological target: T5, DRB1*0301 (DR3) (Homo sapiens, UniProt P01903+P01911, A100K/A102G/A103R/A169T/F55Y/I96L/K41T/L162R/M171V/P40S/Q125H/Q178H/Q39Y/R42S/S66N/T106N/T262R/W38E/Y61H); experiment: HLA class II peptide binding assay (pH 4.5); conditions: for DR3 binding information: unit not given
T5 construct: endogenous in cells; host or cells: MAT

[7] = biological target: T6, DRB5*0101 (DR2w2β2) (Homo sapiens, UniProt P01903+Q30154); format: binding
T6 construct: expressed in transfected cells; host or cells: L416.3 (fibroblasts) or GM3107

[8] = biological target: T7, DRB1*0405 (DR4w15) (Homo sapiens, UniProt P01903+P01911, A100R/A169T/D86S/F76Y/I96L/K127E/L162R/M171V/N62H/P40V/Q125Y/R42H/S133A/S149N/S66Y/V115G/V209L/W38E); experiment: HLA class II peptide binding assay; conditions: for DR4w15 binding information: unit not given; for DR4w15 binding data: Table XIXb
T7 construct: endogenous in cells; host or cells: KT3

[9] = biological target: T8, DRB1*0802 (DR8w2) (Homo sapiens, UniProt P01903+P01911, A100R/A103L/A169T/F76Y/H45Y/I96F/K41T/L162R/M171V/P40S/Q125H/Q178H/Q39Y/Q99D/R218S/R42G/S66Y/V115G/W38E); experiment: biochemical; format: binding
T8 construct: endogenous in cells; host or cells: OLL

[10] = biological target: T9, DRB1*0401 (DR4w4) (Homo sapiens, UniProt P01903+P01911, A100K/A169T/F76Y/I96L/K127E/L162R/M171V/N62H/P40V/Q125Y/R42H/S133A/S149N/S66Y/V115G/V209L/W38E); experiment: HLA class II peptide binding assay; conditions: for DR4w4 binding information: unit not given; for DR4w4 binding data: Table XIXb
T9 construct: endogenous in cells; host or cells: Preiss

[11] = biological target: T10, DRB1*0101 (DR1) (Homo sapiens, UniProt P01903+P01911, A100R/D57E/F55L/F60I/F76Y/I96L/L162R/M171V/P40L/Q125E/R42F/V115G/Y59C); experiment: HLA class II peptide binding assay; conditions: for DR1 binding information: unit not given; for DR1 binding data: Table XIXb, Malaria Super Motif Peptides With Binding Data
T10 construct: endogenous in cells; host or cells: LG2

[12] = biological target: T11, HLA-A*0301 (Homo sapiens, UniProt P04439); experiment: HLA class I peptide binding assay; conditions: for A*0301 (binding information): Malaria A3 motif peptides, Table XVI; for A*301 (binding data): Malaria A03 supermotif peptides, binding value, no unit given
T11 construct: endogenous in cells; host or cells: GM3107

[13] = malaria A11 motif peptides, binding value unit not given
[14] = Malaria A11 motif peptides, binding value for HLA-A*1101, unit not given
[15] = DR3a motif peptides, exemplary 15-mer containing the core sequence
[16] = Malaria A11 motif peptides, HLA-A*1101 binding value, unit not given

T9 sequence (P01903 26-254 partner, other chains not shown): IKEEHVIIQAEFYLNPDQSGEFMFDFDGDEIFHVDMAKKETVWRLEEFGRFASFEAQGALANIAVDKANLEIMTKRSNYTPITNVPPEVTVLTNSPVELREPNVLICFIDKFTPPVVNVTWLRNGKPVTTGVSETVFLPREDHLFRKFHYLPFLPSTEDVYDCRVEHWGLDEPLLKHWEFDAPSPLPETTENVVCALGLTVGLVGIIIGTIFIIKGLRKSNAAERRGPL
T3 sequence (P01903 26-254, other chains not shown): as the sequence (P01903 26-254 partner, other chains not shown) above
T10 sequence (P01903 26-254 partner, other chains not shown): as above

For VDELSEDTK, the “A*1101 binding information” value [1, 13] was 0.0002.
In the case of IFLKENIQNK, the “A*1101 binding information” value [1, 14] is reported as 0.0002.
In the case of TCGKGIRSRK, the “A*1101 binding information” value [1, 13] is reported as 0.0002.
For NSEDRETPPH, the “A*1101 binding information” value [1, 13] was 0.0002.
VEVEKTASC gave a DR7 binding information [2] of 0.0073, a DR5w12 binding information [3, 15] of 0.0001 and a DR5w11 binding information [4] of 0.0003. It also gave a DRw53 binding information ([5]; DR3a motif peptides, unit not given, exemplary 15-mer containing the core sequence) of 0.0022, a DR3 binding information [6, 15] of -0.0041 and a DR2w2β2 binding information [7] of -0.0006. For the same sequence, the DR4w15 binding information [8, 15] was -0.0014, the DR8w2 binding information [9] was 0.0006 and the DR4w4 binding information [10, 15] was 0.0030. The DR1 binding information [11, 15] was 0.0001.
With ESITINVEGR the “A*1101 binding information” value [1, 14] was 0.0002.
FVEALFQEY was tested, and the “A*1101 binding information” value [1, 16] was 0.0003.
CSVTCGKGTR was tested, and the “A*0301 (binding information)” value ([12]; binding value to HLA-A*0301, unit not given) was 0.0002, the “A*301 (binding data)” value [12] was 0.0002 and the “A*1101 binding information” value [1, 13] was 0.0002.
WSPCSVTCGK was tested, and the “A*1101 binding information” value [1, 13] was 0.0002.
With CCKGIRSRKR the “A*1101 binding information” value [1, 13] was 0.0002.
In the case of EMADCTNK, the “A*1101 binding information” value [1, 16] is reported as 0.0002.
With LHEGCTSEL the DR7 binding data [2] was -0.0003, the DR5w12 binding data [3] was 0.0001 and the DR5w11 binding data [4] was -0.0002. For the same sequence, the DR3 binding data ([6]; Table XIXb, DR3) was -0.0041, the DR2w2β2 binding data [7] was -0.0005 and the DR4w15 binding data [8] was -0.0014. The DR8w2 binding data [9] was -0.0003, the DR4w4 binding data [10] was -0.0009 and the DR1 binding data [11] was 0.0001.
With FLKENKLNK the “A*301 (binding data)” value [12] was 0.0260, the “A*0301 (binding information)” value ([12]; HLA-A*0301 binding value, unit not given) was 0.0260 and the DR3 binding information ([6]; Malaria DR3b motif peptides) was 0.0950. The “A*1101 binding information” value [1, 14] was 0.0005.
SLYDEHRKY was tested, and the “A*1101 binding information” value [1, 13] was 0.0045.
LERTKASKE gave a DR7 binding data [2] of 0.0010, a DRw53 binding data ([5]; Table XIXb, DRw53) of -0.0005 and a DR8w2 binding data [9] of -0.0003.
LGGVGLVLY gave a DR7 binding data [2] of 0.0007, a DR5w12 binding data [3] of 0.0004 and a DR5w11 binding data [4] of -0.0062. For the same sequence, the “A*0301 (binding information)” value ([12]; binding value for HLA-A*0301, unit not given) was 0.0001, the DR2w2β2 binding data [7] was -0.005 and the DR4w15 binding data [8] was -0.0009. The DR8w2 binding data [9] was -0.0002, the “A*1101 binding information” value [1, 16] was 0.0002 and the DR4w4 binding data [10] was 0.0032. For the same sequence, the DR1 binding data [11] was 0.4900.
HORNNENRSY was tested, and the “A*1101 binding information” value [1, 13] was 0.0002.
In the case of LGVSENTIFLK, the “A*1101 binding information” value [1, 14] is reported as 0.0063.
Sequence LNKEGKLIE has a DR7 binding information [2] of -0.0009, a DR5w12 binding information ([3]; Malaria DR3b motif peptides) of -0.0003 and a DR5w11 binding information [4] of -0.0005. It also gave a DR3 binding information ([6]; Malaria DR3b motif peptides) of -0.0140, a DR2w2β2 binding information [7] of -0.0021 and a DR4w15 binding information ([8]; Malaria DR3b motif peptides) of -0.0047. It also gave a DR8w2 binding information [9] of -0.0007, a DR4w4 binding information ([10]; Malaria DR3b motif peptides) of -0.0017 and a DR1 binding information ([11]; Malaria DR3b motif peptides) of 0.0001.
